{"source": "paper PMC4856209", "about": "(Nature methods, 2016)", "molecules": {"B1": {"name": "outer membrane porin OmpF (natural protein)", "chain": "AEIYNKDGNKVDLYGKAVGLHYFSKGNGENSYGGNGDMTYARLGFKGETQINSDLTGYGQWEYNFQGNNSEGADAQTGNKTRLAFAGLKYADVGSFDYGRNYGVVYDALGYTDMLPEFGGDTAYSDDFFVGRVGGVATYRNSNFFGLVDGLNFAVQYLGKNERDTARRSNGDGVGGSISYEYEGFGIVGAYGAADRTNLQEAQPLGNGKKAEQWATGLKYDANNIYLAANYGETRNATPITNKFTNTSGFANKTQDVLLVAQYQFDFGLRPSIAYTKSKAKDVEGIGDVDLVNYFEVGATYYFNKNMSTYVDYIINQIDSDNKLGVGSDDTVAVGIVYQF"}}, "test_in_all_cases": "native MS", "key": {"[1]": {"target": "Vibrio sp. N418 semiSWEET (Vibrio sp. N418)"}, "[2]": {"target": "the molecule itself"}, "[3]": {"target": "B1"}}, "note": "No end group written: not given here.", "data": [{"molecule": "Vibrio sp. N418 semiSWEET (natural protein)", "values": [{"measurement": "stoichiometry N", "setting": "[1]", "value": 2}]}, {"molecule": "pentameric ligand-gated ion channel ELIC (natural protein) APADNAADARPVDVSVSIFINKIYGVNTLEQTYKVDGYIVAQWTGKPRKTPGDKPLIVENTQIERWINNGLWVPALEFINVVGSPDTGNKRLMLFPDGRVIYNARFLGSFSNDMDFRLFPFDRQQFVLELEPFSYNNQQLRFSDIQVYTENIDNEEIDEWWIRKASTHISDIRYDHLSSVQPNQNEFSRITVRIDAVRNPSYYLWSFILPLGLIIAASWSVFWLESFSERLQTSFTLMLTVVAYAFYTSNILPRLPYTTVIDQMIIAGYGSIFAAILLIIFAHHRQAMGVEDDLLIQRCRLAFPLGFLAIGCVLVIRGITL", "values": [{"measurement": "stoichiometry N", "setting": "[2]", "value": 5}]}, {"molecule": "B1", "values": [{"measurement": "stoichiometry N", "setting": "[2]", "value": 3}]}, {"molecule": "SGGDGRGHNTGAHSTSG-NH2", "note": "[OBS1 peptide (peptide mimic of colicin OmpF Binding Sequence 1)]", "values": [{"measurement": "Kd", "setting": "[3]", "value": 690, "unit": "nM"}, {"measurement": "stoichiometry N", "setting": "[3]", "value": 3}]}]}
